Read-outs that look alike come from different tables or passages of the source. Peptide text beside a SMILES is read from it. * marks the point of attachment. Palmitoyl = CCCCCCCCCCCCCCCC(=O)*
Key:
[1] = target: T1, PAR2 (Homo sapiens, UniProt P55085); assay: Agonist | (%)^‡; design: SW620 colon adenocarcinoma cells that endogenously express PAR2; endogenous in cells; host or cells: SW620 (in A7 the SW620 cells were additionally stably transfected with PAR1)
[2] = target: T1, PAR2; assay: Antagonist | (% inhibition); design: SW620 colon adenocarcinoma cells that endogenously express PAR2; endogenous in cells; host or cells: SW620 (in A7 the SW620 cells were additionally stably transfected with PAR1); conditions: 6 µM
Description: (§2) (A) Agonist and antagonist activity of third intracellular (i3) loop PAR2 pepducins (structure shown on top) using calcium flux assays with SW620 colon adenocarcinoma cells that endogenously express PAR2. Each column of three calcium flux traces corresponds to the i3 pepducin sequence shown above. The top row is the agonist activity of 3-4 μM pepducin and the middle row is the agonist activity of 14-15 μM pepducin. […] Final concentration of DMSO vehicle was 0.2%. […] (C) Agonist activity for each pepducin from (A) is reported as initial velocity of calcium flux at 4 μM pepducin (†), or at 14-15 μM pepducin (‡).

[3] = target: T1, PAR2; assay: Agonist | (%)^†; design: SW620 colon adenocarcinoma cells that endogenously express PAR2; endogenous in cells; host or cells: SW620 (in A7 the SW620 cells were additionally stably transfected with PAR1); conditions: 4 µM
Description: as §2

[4] = test system: A549, HOP62, and HOP92 lung carcinoma cell lines; assay: Cytotoxicity/cell viability of lung carcinoma cells (MIT assay); type: cell-based, human; conditions: 3-day period
[5] = test system: VEGF-A production; assay: Thrombin-dependent VEGF-A production in A549 cells (ELISA); type: cell-based, human; conditions: A549, 18 hours thrombin treatment
Description: (§1) FIG. 13 illustrates that monotherapy with PAR1-i3 pepducins inhibits tumor progression of A549 xenografts. (A) and (B): A549 mice treated with vehicle, P1pal-7, P1pal-i1-11, P1pal-10S, X1/2-i1, X1/2-i3, or Avastin. Each time point represents the mean±SE. (C): Final tumor volume at the completion of the experiment was calculated as a percentage of untreated vehicle control. (D): Serum-starved A549 adenocarcinoma cells were pretreated with P1pal-7, P1pal-10S, P1pal-i1-11, vehicle, or PD98059 and stimulated with thrombin. VEGF production was assessed by enzyme-linked immunosorbent assay. Data are expressed as mean±SD (*P<0.05, **P<0.01).
Because the i3-based P1pal-7 pepducin had similar efficacy as Avastin in suppressing lung tumor growth of A549 xenografts, VEGF-A production was measured in the A549 tumor cells after 18 hours thrombin treatment. […] Unlike in ovarian cancer, no increase was found in PAR1-mediated IL-8 production in A549 cells, consistent with the observed lack of efficacy of CXCR1/2 pepducins in the A549 xenograft models. These xenograft data provide support for the role of a novel PAR1-ERK1/2-VEGF paracrine pathway that is an effective therapeutic target in the A549 adenocarcinoma lung cancer model.

[6] = test system: A549 xenografts; type: in vivo, mouse
Description: as §1
PAR1 expression level is correlated with reduced survival of patients with NSCLC. To define the relative importance of PAR1 in lung tumor progression, in vivo mouse models were used. […] An A549 lung adenocarcinoma xenograft model in nude mice was used to evaluate monotherapy with P1pal-7, P1pal-10S, P1pal-i1-11, or the VEGF antagonist Avastin.

[7] = target: T2, PAR1 (Homo sapiens, UniProt P25116); assay: ERK1/2 phosphorylation in A549 cells (thrombin or […]), Western blot; type: cell-based; design: endogenous in cells; host or cells: A549, HOP62, H1299, H522, H226, HOP92 lung carcinoma lines; conditions: A549 cells; pepducin 0.1-3 μM
T2 sequence (P25116 22-425): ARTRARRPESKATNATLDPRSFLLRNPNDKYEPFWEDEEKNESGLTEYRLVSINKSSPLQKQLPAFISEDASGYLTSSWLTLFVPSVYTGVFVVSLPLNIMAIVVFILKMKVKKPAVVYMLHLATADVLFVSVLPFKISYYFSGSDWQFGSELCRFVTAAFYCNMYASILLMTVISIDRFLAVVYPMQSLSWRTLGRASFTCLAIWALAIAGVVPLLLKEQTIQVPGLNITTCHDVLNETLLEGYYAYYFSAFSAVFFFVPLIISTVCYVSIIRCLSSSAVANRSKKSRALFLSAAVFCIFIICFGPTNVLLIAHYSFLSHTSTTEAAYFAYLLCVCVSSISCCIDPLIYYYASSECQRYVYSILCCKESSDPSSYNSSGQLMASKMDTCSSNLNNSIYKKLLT
Description: FIG. 9 illustrates that differential inhibition of PAR1-ERK activation by i3- and i1-derived PAR1 pepducins. (A-C): Western blots of lysates from A549 cells untreated, or treated with thrombin, SLIGKV (SEQ ID NO:29), or AYPGKF (SEQ ID NO:5). Indicated samples were pretreated with various concentrations (0.1 to 3 μmol/L) of P1pal-7, P1pal-10S, or P1pal-i1-11 before stimulation and immunoblotted with anti-phospho-ERK. (D-F): Quantification of the Western blots in (A-C) were conducted by densitometry and results are expressed relative to maximum (fold max) phosphorylation of pERK.
(B): A549 cells stimulated with 10 μM […] over 2 h. A549 cells pretreated with 0.1 μM P1pal-7 and stimulated with 10 μM […] (SEQ ID NO:30) for 5 min. Total ERK was used as a loading control.
Last, there has been a great deal of interest in understanding the mechanism of PAR1-mediated activation of MAP kinase cascade and PAR1-dependent cellular growth and differentiation, proliferation and gene transcription. […] The effects of i1 versus i3 PAR1 pepducins on ERK1/2 activation were examined in the A549 lung adenocarcinoma cell line. […] Inhibition experiments with a range of pepducin concentrations (0.1-3 μM) were conducted. […] The […] (SEQ ID NO:30) peptide gave a rapid and transient ERK1/2 phosphorylation signal that peaked at 5-15 min after stimulation. […] To determine the specificity of the PAR1 pepducin inhibitors, their effects on the closely related PAR2 and PAR4 receptors were also tested.

[8] = Pharmacokinetics of PAR1 pepducins in CF-1 mice, plasma LC/MS/MS; type: in vivo, mouse; conditions: 10 mg/kg s.c.
Description: FIG. 14 illustrates pharmacokinetics of PAR1 pepducins. (A): CF-1 mice were injected subcutaneously with P1pal-7 (3 mg/kg, open circles), P1pal-7 (10 mg/kg, closed circles), P1pal-10S (10 mg/kg, gray circles), or P1pal-i1-11 (10 mg/kg, open squares) in 20% dimethyl sulfoxide and blood was collected at indicated time points (n=3). Pepducin levels in plasma were quantified with LC/MS/MS. (B): Daily (D1 to D6) plasma levels of P1pal-7 after subcutaneous injection of 10 mg/kg P1pal-7 were measured at 1 hour (open circles) and 24 hours (open squares).
Pharmacokinetics of plasma levels of P1pal-7, P1pal-10S, and P1pal-i1-11 at 30 minutes, and at 1, 2, 4, 6, 8, and 16 hours was measured by LC/MS/MS to determine steady-state pepducin drug levels and the rate of elimination from mice. Subcutaneous injections of P1pal-7 (3 mg/kg or 10 mg/kg) into wild-type CF-1 mice (25 to 30 g) was followed by blood collection at various time points from the vena cava. […] Residual P1pal-7 levels were 10 nmol/L at the 16-hour time point. After the 4-hour plateau, the elimination rate was linear from 4 to 16 hours. The peak plasma level of 3 mg/kg P1pal-7 reached 0.6 μmol/L at 2 hours and elimination was linear between 2 hours and 16 hours. P1pal-10S (10 mg/kg) gave similar peak plasma level of 1.0 μmol/L as P1pal-7 (10 mg/kg) at 1 hour.
Lastly, the peak plasma level of P1pal-7 (10 mg/kg) was measured before and 1 hour after once-daily subcutaneous injection over 6 days to determine whether the peak plasma levels were consistent on daily administration.

[9] = target: T1, PAR2; assay: Calcium flux screen for PAR2 pepducin agonist and antagonist activity in SW620 cells; type: cell-based; design: SW620 colon adenocarcinoma cells that endogenously express PAR2; endogenous in cells; host or cells: SW620 (in A7 the SW620 cells were additionally stably transfected with PAR1); conditions: for Antagonist activity (inhibition of SLIGRL calcium flux, area under the curve): 6 μM pepducin, 1 min pretreatment, against 100 μM SLIGRL; for Agonist activity (calcium flux): 3-4 μM and 14-15 μM pepducin
Description: as §2

P2pal-14GF: N-terminally truncated palmitoylated PAR2 pepducin, M274 to G and K287 to F; SEQ ID NO:23 (Palmitoyl-GDENSEKKRKRAIF-NH2) [listing 1 of 2 here]
Agonist | (%)^‡ [1]: 8% | Antagonist | (% inhibition) [2]: 0 % inhibition | Agonist | (%)^† [3]: 3%

CCCCCCCCCCCCCCCC(=O)N[C@@H](CC(N)=O)C(=O)N[C@@H](CCCNC(=N)N)C(=O)N[C@@H](CO)C(=O)N[C@@H](CCCCN)C(=O)N[C@@H](CCCCN)C(=O)N[C@@H](CO)C(=O)N[C@@H](CO)C(=O)N[C@@H](C)C(=O)N[C@@H](CC(C)C)C(=O)N[C@@H](Cc1ccccc1)C(N)=O [P1pal-10S] (Palmitoyl-NRSKKSSALF-NH2)
Sensitivity of A549 cells (cytotoxicity) [4]: most sensitive | Effect on thrombin-dependent VEGF-A production [5]: partially blocked | Inhibition of tumor progression/growth (final tumor volume vs vehicle) ([6]; mouse, in vivo): 40% | Effect on thrombin-induced ERK1/2 phosphorylation [7]: complete inhibition | Clearance / plasma half-life in words [8]: rapid clearance after 1 hour | Tmax ([8]; CF-1, mouse, plasma, sc, read-out: Time of peak plasma level): 1 h | Cmax ([8]; mouse, plasma, sc, CF-1 mice, read-out: Peak plasma level): 1000 nM

P2pal-18Q: palmitoylated PAR2 pepducin, R284 replaced by glutamine; SEQ ID NO:22 (Palmitoyl-RSSAMDENSEKKRKQAIK-NH2) [listing 1 of 2 here]
Agonist | (%)^‡ [1]: 16%

Avastin: VEGF antibody; VEGF antagonist [reference compound]
Inhibition of tumor progression/growth (final tumor volume vs vehicle) ([6]; monotherapy, nude mice): 75%

COc1cccc(-c2cc(=O)c3ccccc3o2)c1N [PD98059, reference compound]
Effect on thrombin-dependent VEGF-A production [5]: could suppress

P2pal-18F: palmitoylated PAR2 pepducin, K287 to F, first three residues (R267, M268, L269) deleted; SEQ ID NO:19 (Palmitoyl-RSSAMDENSEKKRKRAIF-NH2) [listing 1 of 2 here]
Antagonist activity (inhibition of SLIGRL calcium flux, area under the curve) [9]: devoid of antagonist activity | Agonist activity (calcium flux) [9]: slight decrease in agonist activity at lower concentration

P2pal-18SF: palmitoylated PAR2 pepducin, R284 to S and K287 to F; SEQ ID NO:21 (Palmitoyl-RSSAMDENSEKKRKSAIF-NH2) [listing 1 of 2 here]
Agonist | (%)^‡ [1]: 30% | Antagonist | (% inhibition) [2]: 57 % inhibition | Agonist | (%)^† [3]: 8%

P2pal-14GF: N-terminally truncated palmitoylated PAR2 pepducin, M274 to G and K287 to F; SEQ ID NO:23 (Palmitoyl-GDENSEKKRKRAIF-NH2) [listing 2 of 2 here]
Antagonist activity (inhibition of SLIGRL calcium flux, area under the curve) [9]: no significant agonist or any detectable antagonist activity | Agonist activity (calcium flux) [9]: no significant agonist

P2pal-18SF: palmitoylated PAR2 pepducin, R284 to S and K287 to F; SEQ ID NO:21 (Palmitoyl-RSSAMDENSEKKRKSAIF-NH2) [listing 2 of 2 here]
Agonist activity (calcium flux) [9]: restored agonist activity

P2pal-18Q: palmitoylated PAR2 pepducin, R284 replaced by glutamine; SEQ ID NO:22 (Palmitoyl-RSSAMDENSEKKRKQAIK-NH2) [listing 2 of 2 here]
Agonist activity (calcium flux) [9]: nearly no agonist activity

P2pal-18F: palmitoylated PAR2 pepducin, K287 to F, first three residues (R267, M268, L269) deleted; SEQ ID NO:19 (Palmitoyl-RSSAMDENSEKKRKRAIF-NH2) [listing 2 of 2 here]
Agonist | (%)^‡ [1]: 35% | Antagonist | (% inhibition) [2]: 0 % inhibition | Agonist | (%)^† [3]: 5%

— patent US10913781B2, “Pepducin design and use” (Tufts Medical Center, Inc., priority 2011, dated 2021)
